What was measured:
[1] = target: TylM1 (Streptomyces fradiae, UniProt P95748); experiment: X-ray crystal structure, […] Å; format: binding; conditions: pH 7.0
[2] = target: the molecule itself; experiment: crystal structure
[3] = target: the molecule itself; experiment: crystal structure; remark: listed apart in the source

C[S+](CC[C@H](N)C(=O)O)C[C@H]1O[C@@H](n2cnc3c(N)ncnc32)[C@H](O)[C@@H]1O (some centres unmarked) [SAM]
X-ray crystal structure, 1.35 Å ([1]; ternary complex with dTDP-phenol, methyl donor site): The SAM cofactor abuts the first three β-strands of the N-terminal domain

Cc1cn([C@H]2C[C@H](O)[C@@H](COP(=O)(O)OP(=O)(O)Oc3ccccc3)O2)c(=O)[nH]c1=O [dTDP-phenol]
X-ray crystal structure, 1.35 Å ([1]; ternary complex with SAM, sugar-nucleotide site): a close-up view of the binding pocket for dTDP-phenol is presented

B1: TylM1 from Streptomyces fradiae (N,N-dimethyltransferase), wild type (enzyme, UniProt P95748 1-255, looked up)
chain: MAHSSATAGPQADYSGEIAELYDLVHQGKGKDYHREAADLAALVRRHSPKAASLLDVACGTGMHLRHLADSFGTVEGLELSADMLAIARRRNPDAVLHHGDMRDFSLGRRFSAVTCMFSSIGHLAGQAELDAALERFAAHVLPDGVVVVEPWWFPENFTPGYVAAGTVEAGGTTVTRVSHSSREGEATRIEVHYLVAGPDRGITHHEESHRITLFTREQYERAFTAAGLSVEFMPGGPSGRGLFTGLPGAKGETR
stoichiometry N [2]: 2

B2: TylM1 H123N mutant protein (enzyme, Streptomyces fradiae, UniProt P95748 1-255, looked up)
chain: MAHSSATAGPQADYSGEIAELYDLVHQGKGKDYHREAADLAALVRRHSPKAASLLDVACGTGMHLRHLADSFGTVEGLELSADMLAIARRRNPDAVLHHGDMRDFSLGRRFSAVTCMFSSIGNLAGQAELDAALERFAAHVLPDGVVVVEPWWFPENFTPGYVAAGTVEAGGTTVTRVSHSSREGEATRIEVHYLVAGPDRGITHHEESHRITLFTREQYERAFTAAGLSVEFMPGGPSGRGLFTGLPGAKGETR
binding result [3]: binds

B3: TylM1 H123A mutant protein (enzyme, Streptomyces fradiae, UniProt P95748 1-255, looked up)
chain: MAHSSATAGPQADYSGEIAELYDLVHQGKGKDYHREAADLAALVRRHSPKAASLLDVACGTGMHLRHLADSFGTVEGLELSADMLAIARRRNPDAVLHHGDMRDFSLGRRFSAVTCMFSSIGALAGQAELDAALERFAAHVLPDGVVVVEPWWFPENFTPGYVAAGTVEAGGTTVTRVSHSSREGEATRIEVHYLVAGPDRGITHHEESHRITLFTREQYERAFTAAGLSVEFMPGGPSGRGLFTGLPGAKGETR
binding result [3]: binds

Source: publication PMC3079244 (Biochemistry, 2011)
